Source: publication PMC9574934, “Targeting the Phosphatidylserine-Immune Checkpoint with a Small-Molecule Maytansinoid Conjugate” (Journal of Medicinal Chemistry, 2022)

Legend:
[1] = Single intravenous dose pharmacokinetic study; conditions: for loss of AUC: intact conjugate AUC relative to 40a; for AUC(0-24 hr) Conjugate: intact conjugate; for AUC(0-24 hr) Conjugate / CL / Vss / AUC(0-24 hr) Drug: male ICR mice; for AUC(0-24 hr) Conjugate / CL / Vss: 5 mg/kg intravenous; for CL / Vss: n = 3; for AUC(0-24 hr) Drug: 5 mg/kg intravenous of conjugate
Method: Six-week-old male ICR mice, from the Biolasco Taiwan, were divided into groups of three and dosed at 5 mg/kg intravenously. Blood samples were drawn from each animal at time points of 0.003, 0.083, 0.25, 0.5, 1, 2, 4, 6, 8, and 24 h and stored on ice (0–4 °C). With centrifugation (3000 rpm for 15 min at 4 °C in a Beckman Model Allegra 6R centrifuge), plasma was separated from the blood and stored in frozen conditions (−20 °C). […] The mice were sacrificed, and the blood samples of 0.5 mL each and tumor samples were collected at 0.5, 2, 6, 24, 72, and 168 h after administration. Each time point group included 4 mice. Mouse blood samples were collected in EDTA tubes and centrifuged at 13,000 rpm for 5 min at 4°C for plasma collection. Plasma and the harvested tumor samples were stored at −80°C until use. Fifty microliters of mouse plasma or the sample of tumor homogenated in ddH2O with dilution ratio of 1:3 (w/v) by MiniBeadbeater-16 (BioSpec Products Inc., OK, USA) was mixed with 100 μL of acetonitrile containing 250 ng/mL BPR0L187. The mixture was vortexed for 30 s and then centrifuged at 15000g for 20 min. The supernatant was transferred to a clean tube, and 15 μL of the supernatant was injected onto LC/MS/MS. Plasma samples were analyzed by liquid chromatography tandem mass spectrometry (LC/MS/MS). The chromatographic system Agilent 1200 series LC system and an Agilent ZORBAX Eclipse XDB-C8 column (5 μm, 3.0 × 150 mm) interfaced to an MDS Sciex API4000 tandem mass spectrometer equipped with an ESI in the positive scanning mode at 600 °C was used. Data acquisition was collected via multiple reactions monitoring (MRM). A gradient system was employed for the separation of analyte and IS. Mobile phase A was 10 mM ammonium acetate aqueous solution containing 0.1% formic acid. Mobile phase B was acetonitrile. The gradient profile was as follows: 0.0–1.1 min, 50% B; 1.2–3.7 min, 55%B–90%B; 3.8–5.0 min, 90%B–50%B. The flow rate was 1.5 mL/min. The autosampler was programmed to inject 15 μL of the sample every 5 min.

[2] = system: MIA PaCa-2 human xenografts; assay: MIA PaCa-2 xenograft antitumor efficacy; conditions: MIA PaCa-2 xenograft, 2 mg/kg intravenous (Figure S4)
Method: Cancer cells, suspending in phenol red free medium/DPBS, were mixed with Matrigel (356237, BD Biosciences, San Jose CA, USA) in a 1:1 ratio. Human pancreatic cancer MIA PaCa-2 (1 × 10^6 cells) or triple-negative breast cancer HCC1806 (1 × 10^6cells) cells were subcutaneously inoculated to left flanks of male nude mice 6 weeks old (Biolasco, Taiwan) or female nude mice 6 weeks old by using a 1 mL syringe (needle 24G × 1 in., 0.55 × 25 mm; TERUMO). Tumor dimensions were measured twice a week with an electronic caliper (FOW54-200-777, PRO-MAX, Newton, Massachusetts, USA), and the volume of the subcutaneously growing tumor in mm^3 was calculated by the following formula: volume = (length × width[2])/2. Conjugates were formulated 10% DMA/20% Cremophor EL/70% injectable solution of 5% dextrose (D5W) for treating MIA PaCa-2 and HCC1806 xenograft tumors. […] Body weight of the mice and tumor volume were measured twice weekly.

SMILES	loss of AUC [1]	AUC(0-24 hr) Conjugate [1]	CL [1]	Vss [1]	AUC(0-24 hr) Drug ([1]; released payload 16)	antitumor activity [2]	body weight change during treatment [2]	AUC(0-24 hr) Drug ([1]; released payload 14)
CCCCCC(=O)Nc1cccc(CN(Cc2cc(CN(Cc3ccccn3)Cc3cccc(NC(=O)CCCCC)n3)cc(OCCCCN(Cc3ccc(C(=O)NCCOCCOCCNC(=O)CCSSC(C)(C)CCC(=O)N(C)C(C)C(=O)OC4CC(=O)N(C)c5cc(cc(OC)c5Cl)CC(C)=CC=CC(OC)C5(O)CC(OC(=O)N5)C(C)C5OC45C)cc3)C(=O)C3(c4ccc(Cl)cc4)CCCCC3)c2)Cc2ccccn2)n1.O=[N+]([O-])[O-].O=[N+]([O-])[O-].O=[N+]([O-])[O-].O=[N+]([O-])[O-].[Zn+2].[Zn+2] (centres unmarked) [Compound 43]	~20%	84916 ng·h/mL	1.0 mL/min/kg	0.2 L/kg	48 ng·h/mL			
COc1cc2cc(c1Cl)N(C)C(=O)CC(OC(=O)C(C)N(C)C(=O)CCSSCCC(=O)NCCCCOc1cc(CN(Cc3ccccn3)Cc3ccccn3)cc(CN(Cc3ccccn3)Cc3ccccn3)c1)C1(C)OC1C(C)C1CC(O)(NC(=O)O1)C(OC)C=CC=C(C)C2.O=[N+]([O-])[O-].O=[N+]([O-])[O-].O=[N+]([O-])[O-].O=[N+]([O-])[O-].[Zn+2].[Zn+2] [Compound 27a, (1S,2R,3S,5S,6S,16E,18Z,20R,21S)-11-Chloro-21-hydroxy-12,20-dimethoxy-2,5,9,16-tetramethyl-8,23-dioxo-4,24-dioxa-9,22-diazatetracyclo[19.3.1.1.^10,140^3,5]hexacosa-10(26),11,13,16,18-pentaen-6-yl (2S)-2-[{3-[(3-{[4-(3,5-bis{[bis(Pyridin-2-ylmethyl)amino]methyl}phenoxy)butyl]amino}-3-oxopropyl)disulfanyl]propanoyl}(methyl)amino]propanoate·2[Zn(NO3)2]]		7051 ng·h/mL	11.5 mL/min/kg	2.6 L/kg		exhibited antitumor activities	significant body weight loss	462 ng·h/mL
COc1cc2cc(c1Cl)N(C)C(=O)C[C@H](OC(=O)[C@H](C)N(C)C(=O)CCSSCCC(=O)NCc1ccc(CNC(=O)COCCOCCOCC(=O)N(CCCCOc3cc(CN(Cc4ccccn4)Cc4ccccn4)cc(CN(Cc4ccccn4)Cc4ccccn4)c3)Cc3ccc(-c4ccccc4)cc3)cc1)[C@]1(C)O[C@H]1[C@H](C)[C@@H]1C[C@@](O)(NC(=O)O1)[C@H](OC)/C=C\C=C(/C)C2.O=[N+]([O-])[O-].O=[N+]([O-])[O-].O=[N+]([O-])[O-].O=[N+]([O-])[O-].[Zn+2].[Zn+2] [Compound 30]		39025 ng·h/mL	2.5 mL/min/kg	0.5 L/kg				242 ng·h/mL
CCCCCC(=O)Nc1cccc(CN(Cc2cc(CN(Cc3ccccn3)Cc3cccc(NC(=O)CCCCC)n3)cc(OCCCCN(Cc3ccc(-c4ccccc4)cc3)C(=O)COCCOCCOCC(=O)NCc3ccc(CNC(=O)CCC(C)(C)SSCCC(=O)N(C)[C@@H](C)C(=O)O[C@H]4CC(=O)N(C)c5cc(cc(OC)c5Cl)C/C(C)=C/C=C\[C@@H](OC)[C@@]5(O)C[C@H](OC(=O)N5)[C@@H](C)[C@@H]5O[C@@]45C)cc3)c2)Cc2ccccn2)n1.O=[N+]([O-])[O-].O=[N+]([O-])[O-].O=[N+]([O-])[O-].O=[N+]([O-])[O-].[Zn+2].[Zn+2] [Compound 40b]	~20%	88387 ng·h/mL	1.0 mL/min/kg	0.2 L/kg				91 ng·h/mL
